Test results taken from patent US20250188131A1 (ICOSAVAX, published 2025).

Molecular target: T1, I53-50B.4PosT1
T1 construct: also called second component; CompB
Test: in vitro assembly with I53-50B, DLS
Description: Selected constructs were incubated with a second component, I53-50B, to form nanostructures. Dynamic Light Scattering (DLS) and negative-stain electron microscopy (nsEM) confirm assembly as nanostructure. A representative electron micrograph is shown in FIG. 5 (RSV/B.195, having the DS-Cav).
Assembly: Molar concentrations for RSV/B or RSV/A trimers fused to I53-50AΔcys and I53-50B (second component, using the sequence of I53-50B.4PosT1, SEQ ID NO:46) were determined using UV-Vis spectroscopy. Absorbance values at 280 nm were collected and divided by calculated molar extinction coefficients (ExPASy). The assembly reaction to produce RSVB antigen-bearing nanostructures was performed in vitro with the addition of components as follows: RSV F trimers fused to I53-50AΔcys were added to PCR tubes in 1.5× molar excess of I53-50B, then assembly buffer (20 mM Tris pH 7.4, 250 mM NaCl, 4% sucrose) was added to the sample in PCR tubes, and finally I53-50B was added to the reaction to bring the assemblies to a final concentration of 7.5 μM and a final volume of 47.5 μL. The reaction was incubated at ambient temperature for ˜30 minutes with gentle rocking prior to subsequent measurement by dynamic light scattering (DLS). All constructs were assembly competent under the conditions tested. Prior to nsEM analysis or immunogenicity studies, assembled nanostructures were further purified by size exclusion chromatography over a Superose 6 Increase 10/300 GL column into 20 mM Tris pH 7.4, 250 mM NaCl, 4% sucrose.

| Binder | binding result |
| --- | --- |
| RSV/B.099 (other) QNITEEFYQSTCSAVSRGYLSALRTGWYTSVITIELSNIKEVKCNGTDTKVKLIKQELDKYKNAVTELQLLMQNTPAVNNRARREAPQYMNYTINTTKNLNVSISKKRKRRFLGFLLGVGSAIASGIAVCKVLHLEGEVNKIKNALQLTNKAVVSLSNGVSVLTFRVLDLKNYINNQLLPMLNRQSCRISNIETVIEFQQKNSRLLEITREFSVNAGVTTPLSTYMLTNSELLSLINDMPITNDQKKLMSSNVQIVRQQSYSIMCIIKEEVLAYVVQLPIYGVIDTPCWKLHTSPLCTTNIKEGSNICLTRTDRGWYCDNAGSVSFFPQADTCKVQSNRVFCDTMNSLTLPSEVSLCNTDIFNSKYDCKIMTSKTDISSSVITSLGAIVSCYGKTKCTASNKNRGIIKTFSNGCDYVSNKGVDTVSVGNTLYYVNKLEGKNLYVKGEPIINYYDPLVFPSDRFDASISQVNEAINQSLAFIRRSDELLGSGGSGSGSGGSEKAAKAEEAARKMEELFKKHKIVAVLRANSVEEAIEKAVAVFAGGVHLIEITFTVPDADTVIKALSVLKEKGAIIGAGTVTSVEQARKAVESGAEFIVSPHLDEEISQFAKEKGVFYMPGVMTPTELVKAMKLGHTILKLFPGEVVGPQFVKAMKGPFPNVKFVPTGGVNLDNVAEWFKAGVLAVGVGSALVKGTPDEVREKAKAFVEKIRGATELEHHHHHH | binds |
| RSV/B.002 (other, DS-Cav1 control; also called DS-Cav1 RSV/B.002) QNITEEFYQSTCSAVSRGYLSALRTGWYTSVITIELSNIKETKCNGTDTKVKLIKQELDKYKNAVTELQLLMQNTPAVNNRARREAPQYMNYTINTTKNLNVSISKKRKRRFLGFLLGVGSAIASGIAVCKVLHLEGEVNKIKNALQLTNKAVVSLSNGVSVLTFRVLDLKNYINNQLLPMLNRQSCRISNIETVIEFQQKNSRLLEITREFSVNAGVTTPLSTYMLTNSELLSLINDMPITNDQKKLMSSNVQIVRQQSYSIMCIIKEEVLAYVVQLPIYGVIDTPCWKLHTSPLCTTNIKEGSNICLTRTDRGWYCDNAGSVSFFPQADTCKVQSNRVFCDTMNSLTLPSEVSLCNTDIFNSKYDCKIMTSKTDISSSVITSLGAIVSCYGKTKCTASNKNRGIIKTFSNGCDYVSNKGVDTVSVGNTLYYVNKLEGKNLYVKGEPIINYYDPLVFPSDEFDASISQVNEKINQSLAFIRRSDELLGSGGSGSGSGGSEKAAKAEEAARKMEELFKKHKIVAVLRANSVEEAIEKAVAVFAGGVHLIEITFTVPDADTVIKALSVLKEKGAIIGAGTVTSVEQARKAVESGAEFIVSPHLDEEISQFAKEKGVFYMPGVMTPTELVKAMKLGHTILKLFPGEVVGPQFVKAMKGPFPNVKFVPTGGVNLDNVAEWFKAGVLAVGVGSALVKGTPDEVREKAKAFVEKIRGATELEHHHHHH | binds |
| RSV/B.081 (other) QNITEEFYQSTCSAVSRGYLSALRTGWYTSVITIELSNIKETKCNGTDTKVKLIKQELDKYKNAVTELQLLMQNTPAVNNRARREAPQYMNYTINTTKNLNVSISKKRKRRFLGFLLGVGSAIASGIAVCKVLHLEGEVNKIKNALQLTNKAVVSLSNGVSVLTFRVLDLKNYINNQLLPMLNRQSCRISNIETVIEFQQKNSRLLEITREFSVNAGVTTPLSTYMLTNSELLSLINDMPITNDQKKLMSSNVQIVRQQSYSIMCIIKEEVLAYVVQLPIYGVIDTPCWKLHTSPLCTTNIKEGSNICLTRTDRGWYCDNAGSVSFFPQADTCKVQSNRVFCDTMNSLTLPSEVSLCNTDIFNSKYDCKIMTSKDDISSSVITSLGAIVSCYGKTKCTASNKNRGIIKTFSNGCDYVSNKGVDTVSVGNTLYYVNKLEGKNLYVKGEPIINYYDPLVFPSARFAASISQVNEAINQSLAFIRRSDELLGSGGSGSGSGGSEKAAKAEEAARKMEELFKKHKIVAVLRANSVEEAIEKAVAVFAGGVHLIEITFTVPDADTVIKALSVLKEKGAIIGAGTVTSVEQARKAVESGAEFIVSPHLDEEISQFAKEKGVFYMPGVMTPTELVKAMKLGHTILKLFPGEVVGPQFVKAMKGPFPNVKFVPTGGVNLDNVAEWFKAGVLAVGVGSALVKGTPDEVREKAKAFVEKIRGATELEHHHHHH | binds |
| RSV/B.093 (other) QNITEEFYQSTCSAVSRGYLSALRTGWYTSVITIELSNIKETKCNGTDTKVKLIKQELDKYKNAVTELQLLMQNTPAVNNRARREAPQYMNYTINTTKNLNVSISKKRKRRFLGFLLGVGSAIASGIAVCKVLHLEGEVNKIKNALQLTNKAVVSLSNGVSVLTFRVLDLKNYINNQLLPMLNRQSCRISNIETVIEFQQKNSRLLEITREFSVNAGVTTPLSTYMLTNSELLSLINDMPITNDQKKLMSSNVQIVRQQSYSIMCIIKEEVLAYVVQLPIYGVIDTPCWKLHTSPLCTTNIKEGSNICLTRTDRGWYCDNAGSVSFFPQADTCKVQSNRVFCDTMNSLTLPSEVSLCNTDIFNSKYDCKIMTSKDDISSSVITSLGAIVSCYGKTKCTASNKNRGIIKTFSNGCDYVSNKGVDTVSVGNTLYYVNKLEGKNLYVKGEPIINYYDPLVFPSARWAASISQVNEAINQSLAFIRRSDELLGSGGSGSGSGGSEKAAKAEEAARKMEELFKKHKIVAVLRANSVEEAIEKAVAVFAGGVHLIEITFTVPDADTVIKALSVLKEKGAIIGAGTVTSVEQARKAVESGAEFIVSPHLDEEISQFAKEKGVFYMPGVMTPTELVKAMKLGHTILKLFPGEVVGPQFVKAMKGPFPNVKFVPTGGVNLDNVAEWFKAGVLAVGVGSALVKGTPDEVREKAKAFVEKIRGATELEHHHHHH | binds |
| RSV/B.100 (other) QNITEEFYQSTCSAVSRGYLSALRTGWYTSVITIELSNIKEVKCNGTDTKVKLIKQELDKYKNAVTELQLLMQNTPAVNNRARREAPQYMNYTINTTKNLNVSISKKRKRRFLGFLLGVGSAIASGIAVCKVLHLEGEVNKIKNALQLTNKAVVSLSNGVSVLTFRVLDLKNYINNQLLPMLNRQSCRISNIETVIEFQQKNSRLLEITREFSVNAGVTTPLSPYMLTNSELLSLINDMPITNDQKKLMSSNVQIVRQQSYSIMCIIKEEVLAYVVQLPIYGVIDTPCWKLHTSPLCTTNIKEGSNICLTRTDRGWYCDNAGSVSFFPQADTCKVQSNRVFCDTMNSLTLPSEVSLCNTDIFNSKYDCKIMTSKTDISSSVITSLGAIVSCYGKTKCTASNKNRGIIKTFSNGCDYVSNKGVDTVSVGNTLYYVNKLEGKNLYVKGEPIINYYDPLVFPSDRFDASISQVNEAINQSLAFIRRSDELLGSGGSGSGSGGSEKAAKAEEAARKMEELFKKHKIVAVLRANSVEEAIEKAVAVFAGGVHLIEITFTVPDADTVIKALSVLKEKGAIIGAGTVTSVEQARKAVESGAEFIVSPHLDEEISQFAKEKGVFYMPGVMTPTELVKAMKLGHTILKLFPGEVVGPQFVKAMKGPFPNVKFVPTGGVNLDNVAEWFKAGVLAVGVGSALVKGTPDEVREKAKAFVEKIRGATELEHHHHHH | binds |
| RSV/B.123 (other) QNITEEFYQSTCSAVSRGYLSALRTGWYTSVITIELSNIKEVKCNGTDTKVKLIKQELDKYKNAVTELQLLMQNTPAVNNRARREAPQYMNYTINTTKNLNVSISKKRKRRFLGFLLGVGSAIASGIAVCKVLHLEGEVNKIKNALQLTNKAVVSLSNGVSVLTFRVLDLKNYINNQLLPMLNRQSCRISNIETVIEFQQKNSRLLEITREFSVNAGVTTPLSTYMLTNSELLSLINDMPITNDQKKLMSSNVQIVRQQSYSIMCIIKEEVLAYVVQLPIYGVIDTPCWKLHTSPLCTTNIKEGSNICLTRTDRGWYCDNAGSVSFFPQADTCKVQSNRVFCDTMNSLTLPSEVSLCNTDIFNSKYDCKIMTSKDDISSSVITSLGAIVSCYGKTKCTASNKNRGIIKTFSNGCDYVSNKGVDTVSVGNTLYYVNKLEGKNLYVKGEPIINYYDPLVFPSDRFAASISQVNEAINQSLAFIRRSDELLGSGGSGSGSGGSEKAAKAEEAARKMEELFKKHKIVAVLRANSVEEAIEKAVAVFAGGVHLIEITFTVPDADTVIKALSVLKEKGAIIGAGTVTSVEQARKAVESGAEFIVSPHLDEEISQFAKEKGVFYMPGVMTPTELVKAMKLGHTILKLFPGEVVGPQFVKAMKGPFPNVKFVPTGGVNLDNVAEWFKAGVLAVGVGSALVKGTPDEVREKAKAFVEKIRGATELEHHHHHH | binds |
| RSV/B.171 (other) QNITEEFYQSTCSAVSRGYLSALRTGWYTSVITIELSNIKETKCNGTDTKVKLIKQELDKYKNAVTELQLLMQNTPAVNNRARREAPQYMNYTINTTKNLNVSISKKRKRRFLGFLLGVGSAIASGIAVCKVLHLEGEVNKIKNALQLTNKAVVSLSNGVSVLTFRVLDLKNYINNQLLPMLNRQSCRISNIETVIEFQQKNSRLLEITREFSVNAGVTTPLSTYMLTNSELLSLINDMPITNDQKKLMSSNVQIVRQQSYSIMCIIKEEVLAYVVQLPIYGVIDTPCWKLHTSPLCTTNIKEGSNICLTRTDRGWYCDNAGSVSFFPQADTCKVQSNRVFCDTMNSLTLPSEVSLCNTDIFNSKYDCKIMTSKDDISSSVITSLGAIVSCYGKTKCTASNKNRGIIKTFSNGCDYVSNKGVDTVSVGNTLYYVNKLEGKNLYVKGEPIINYYDPLVFPSDRFAASISQVNEAINQSREIIRAINIVRKIASEKGSGGSGSGSGGSEKAAKAEEAARKMEELFKKHKIVAVLRANSVEEAIEKAVAVFAGGVHLIEITFTVPDADTVIKALSVLKEKGAIIGAGTVTSVEQARKAVESGAEFIVSPHLDEEISQFAKEKGVFYMPGVMTPTELVKAMKLGHTILKLFPGEVVGPQFVKAMKGPFPNVKFVPTGGVNLDNVAEWFKAGVLAVGVGSALVKGTPDEVREKAKAFVEKIRGATELEHHHHHH | binds |
